# B1: Small nuclear ribonucleoprotein E (Saccharomyces cerevisiae), Q12330 (parent)
# chain: MSNKVKTKAMVPPINCIFNFLQQQTPVTIWLFEQIGIRIKGKIVGFDEFMNVVIDEAVEIPVNSADGKEDVEKGTPLGKILLKGDNITLITSAD
# partner: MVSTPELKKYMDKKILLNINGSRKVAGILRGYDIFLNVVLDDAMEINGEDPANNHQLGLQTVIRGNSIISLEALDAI
# Variants of: B1
# Settings: with ruxg_yeast SMX2, P40204
row,Variant,effect of a mutation on the interaction
1,MSNKVKTKAMVPPINCIFNFLQQQTPVTIWLFEQIGIRIKGKIVVFDEFMNVVIDEAVEIPVNSADGKEDVEKGTPLGKILLKGDNITLITSAD [G45V],with no effect
2,MSNKVKTKAMVPPINCIFNFLQQQTPVTIWLFEQIGIRIKGKIVGFDEFMNVVIDEAVEIPVNSADGKEDVEKGTPLGKILLKADNITLITSAD [G84A],with no effect
3,MSNKVKTKAMVPPINCIFNFLQQQTPVTIWLFEQIGIRIKGKIVGFDEFANVVIDEAVEIPVNSADGKEDVEKGTPLGKILLKGDNITLITSAD [M50A],decreasing interaction strength
4,MSNKVKTKAMVPPINCIFNFLQQQTPVTIWLFEQIGIRIKGKIVGFDEFMNVVIDEAVEIPVNSADGKEDVEKGTSLGKILLKGDNITLITSAD [P76S],with no effect
5,MSNKVKTKAMVPPINCIFNFLQQQTPVTIWSFEQIGIRIKGKIVGFDEFMNVVIDEAVEIPVNSADGKEDVEKGTPLGKILLKGDNITLITSAD [L31S],with no effect
6,MSNKVKTKAMVPPINCIFNFLQQQTPVTIWLFEQIGIRIKGKIVGFDEFMNVVIDEAVEIPVNSADGKEDVEKGTPLGKILLKGDNITLRTSAD [I90R],disrupting interaction strength
7,MSNKVKTKAMVPPINCIFNFLQQQTPVTIWLFEQIGIRIKGKIVGFDEFMNVVIDEAVEIPVNSADGKEDVEKGTPLGKILLKGDAITLITSAD [N86A],decreasing interaction strength
8,MSNKVKTKAMVPPINCIFNFLQQQTPVTIWLFEQIGIRIKGKIVGFDEFMNVVIDEAVEIPVNSADGKEDVEKGTPLGKFLLKGDNITLITSAD [I80F],with no effect
9,MSNKVKTKAMVPPINCIFNFLQQQTPVTIWLFEQIGIRIKGKIVGFDEFMAVVIDEAVEIPVNSADGKEDVEKGTPLGKILLKGDNITLITSAD [N51A],with no effect
10,MSNKVKTKAMVPPINCIFNFLQQQTPVTIWLFEQIGIRIKGKIVGFHEFMNVVIDEAVEIPVNSADGKEDVEKGTPLGKILLKGDNITLITSAD [D47H],decreasing interaction strength
11,MSNKVKTKAMVPPINCIFNFLQQQTPVTIWLFEQIGIRIKGKIVGFDEFMNVVNDEAVEIPVNSADGKEDVEKGTPLGKILLKGDNITLITSAD [I54N],disrupting interaction strength
12,MSNKVKTKAMVPPINCIFNFLQQQTPVTIWLFEQIGIRIKGKIVGFDEFMNVVIDEAVEIPVNSADGKEDVEKGTPLGKILLVGDNITLITSAD [K83V],with no effect

# More lines, now with the values ahead:
row,effect of a mutation on the interaction,Variant
1,disrupting interaction strength,MSNKVKTKAMVPPINCIFNFLQQQTPVTKWLFEQIGIRIKGKIVGFDEFMNVVIDEAVEIPVNSADGKEDVEKGTPLGKILLKGDNITLITSAD [I29K]
2,with no effect,MSNKVKTKAMVPPINCIFNFLQQQTPVTIWLFEQIGIRIKGKIVGFDEFMNVVIDEAVAIPVDSADGKEDVEKGTPLGKILLKGDNITLITSAD [E59A;N63D]
3,disrupting interaction strength,MSNKVKTKAMVPPINCIFNFLQQQTPVTIWLFEQIGIRIKDKIVGFDEFMNVVIDEAVEIPVNSADGKEDVEKGTPLGKILLKGDNITLITSAD [G41D]
4,with no effect,MSNKVKTKAMVPPINCIFNFLQQQTPVTIWLFEQIGIRIKGKIVGFDEFMNVVIDEAVEIPVNSADGKEDVEKGTPLGKIPLKGDNITLITSAD [L81P]
5,decreasing interaction strength,MSNKVKTKAMVPPINCIFNFLQQQTPVTIWLFEQIGIRIKGKIVGFAEFMNVVIDEAVEIPVNSADGKEDVEKGTPLGKILLKGDNITLITSAD [D47A]

# Source: IntAct's records for PubMed 9528767
